System: peptide library, one residue held at a place counted from the S/T acceptor
Assay: relative phosphorylation of the sub-library (ratio to the mean residue at this position); higher = residue favoured
Conditions: human
Procedure, shortened: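 Purified recombinant kinases, either human or orthologue constructs, were incubated in 384-well plates with biotinylated degenerate peptide sub-libraries. Each sub-library fixed one residue at one position around a central Ser/Thr. Peptides at 50 μM and 50 μM ATP spiked with γ-32P-ATP were used for 90 min under kinase-specific conditions, and spots on streptavidin membranes were phosphorimaged and quantified by densitometry. Relative sub-library phosphorylation is expressed as a ratio to the mean residue at that position.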

CDK9, construct: Full length, sequence (P50750 whole entry, looked up): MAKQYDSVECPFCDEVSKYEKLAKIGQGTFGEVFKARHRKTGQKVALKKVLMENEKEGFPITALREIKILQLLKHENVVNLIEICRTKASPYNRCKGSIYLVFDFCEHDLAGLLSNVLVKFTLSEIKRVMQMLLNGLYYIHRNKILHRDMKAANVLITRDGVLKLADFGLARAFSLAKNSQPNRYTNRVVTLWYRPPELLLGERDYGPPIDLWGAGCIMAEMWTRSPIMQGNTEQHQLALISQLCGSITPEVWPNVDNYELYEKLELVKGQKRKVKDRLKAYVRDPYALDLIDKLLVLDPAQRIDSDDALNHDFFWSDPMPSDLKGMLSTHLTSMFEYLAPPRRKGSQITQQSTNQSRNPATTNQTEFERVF
MAP3K6, construct: aa620-950, sequence (O95382 620-950, looked up): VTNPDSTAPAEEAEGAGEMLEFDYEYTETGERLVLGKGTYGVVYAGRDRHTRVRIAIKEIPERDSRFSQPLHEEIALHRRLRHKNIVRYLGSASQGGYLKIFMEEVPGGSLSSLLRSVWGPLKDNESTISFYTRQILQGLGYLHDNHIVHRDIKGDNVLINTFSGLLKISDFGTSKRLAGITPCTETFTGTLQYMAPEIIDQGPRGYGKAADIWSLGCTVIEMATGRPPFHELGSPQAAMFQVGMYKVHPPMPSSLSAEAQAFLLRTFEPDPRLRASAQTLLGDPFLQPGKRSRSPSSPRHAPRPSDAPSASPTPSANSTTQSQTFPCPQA
MAK, construct: Full length, sequence (P20794 whole entry, looked up): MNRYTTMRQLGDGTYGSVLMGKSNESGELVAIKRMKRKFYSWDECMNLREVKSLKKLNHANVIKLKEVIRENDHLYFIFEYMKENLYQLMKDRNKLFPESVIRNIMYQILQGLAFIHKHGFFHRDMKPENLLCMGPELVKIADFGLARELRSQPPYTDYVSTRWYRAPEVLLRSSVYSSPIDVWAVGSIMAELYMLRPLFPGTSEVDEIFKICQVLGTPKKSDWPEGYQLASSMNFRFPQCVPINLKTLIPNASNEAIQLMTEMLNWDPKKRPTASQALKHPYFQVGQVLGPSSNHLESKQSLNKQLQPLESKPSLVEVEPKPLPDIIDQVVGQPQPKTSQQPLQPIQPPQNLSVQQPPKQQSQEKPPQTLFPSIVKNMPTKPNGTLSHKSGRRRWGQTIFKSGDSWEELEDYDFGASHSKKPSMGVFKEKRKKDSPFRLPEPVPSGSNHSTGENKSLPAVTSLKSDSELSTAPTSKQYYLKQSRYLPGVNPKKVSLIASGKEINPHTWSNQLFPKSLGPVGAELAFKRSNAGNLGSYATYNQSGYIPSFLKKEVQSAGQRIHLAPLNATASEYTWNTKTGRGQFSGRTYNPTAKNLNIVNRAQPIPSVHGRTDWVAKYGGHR

MAK, construct: Full length (from UniProt P20794)
relative phosphorylation
Conditions	at +1	at +2	at +3	at +4	at -1	at -2	at -3	at -4	at -5
A fixed	2.18	1.07	0.904	0.995	1.19	0.647	0.835	1.16	1.16
D fixed	0.175	1.06	0.653	0.701	0.423	0.165	0.276	0.752	0.824
E fixed	0.155	0.749	0.523	0.677	0.32	0.18	0.251	0.781	0.745
F fixed	0.321	0.762	0.858	0.704	0.498	0.159	0.201	0.633	0.864
G fixed	2.02	1.56	1.51	1.49	1.8	0.63	0.653	1.33	1.5
H fixed	0.308	1.09	1.32	1.19	0.982	0.251	0.428	0.856	0.994
I fixed	0.431	0.736	0.785	0.785	0.315	0.476	0.291	0.647	0.745
K fixed	0.324	1.01	1.37	1.21	1.92	0.779	0.872	1.06	0.989
L fixed	0.394	1.03	1.06	0.853	0.638	0.632	0.356	0.707	0.723
M fixed	0.445	0.979	0.901	0.878	1.07	0.406	0.309	0.803	0.855
N fixed	0.322	1.05	0.924	0.995	0.94	0.313	0.382	0.732	0.726
P fixed	7.71	0.986	1.21	1.36	1.51	8.65	2.32	1.8	1.9
Q fixed	0.393	0.939	0.904	0.898	1.13	0.394	0.513	0.898	1.03
R fixed	0.759	1.08	1.47	1.48	2.24	2.32	8.51	2.58	1.36
V fixed	0.455	0.907	0.978	0.877	0.63	0.631	0.302	0.81	0.821
W fixed	0.329	0.988	0.801	1.01	0.616	0.192	0.238	0.725	0.725
Y fixed	0.274	1	0.831	0.908	0.788	0.178	0.254	0.725	1.04
pThr fixed	0.401	0.534	0.748	0.735	0.265	0.377	0.408	0.851	0.905
pTyr fixed	0.326	0.839	0.706	0.678	0.338	0.212	0.365	0.759	0.912

CDK9, construct: Full length (from UniProt P50750)
relative phosphorylation
Conditions	at +1	at +2	at +3	at +4	at -1	at -2	at -3	at -4	at -5
A fixed	0.39	0.956	0.702	0.931	1.2	1.52	1.17	1.19	1.13
D fixed	0.167	0.493	0.429	0.79	0.328	0.322	0.339	0.607	0.572
E fixed	0.212	0.478	0.409	0.913	0.34	0.392	0.382	0.661	0.514
F fixed	0.398	0.953	0.593	1.01	0.974	0.919	1.01	1.13	1.25
G fixed	0.943	1.35	0.85	1.13	1.34	1.12	1.82	1.14	1.01
H fixed	0.286	1.57	3	1.45	1.02	0.973	1.12	1.13	1.27
I fixed	0.306	0.708	0.547	0.871	0.353	0.956	0.902	0.868	0.858
K fixed	0.328	1.24	0.828	0.752	1.51	0.91	0.939	1.1	1.09
L fixed	0.404	0.736	0.453	0.791	0.98	0.95	0.868	0.914	0.82
M fixed	0.347	0.769	0.478	0.893	1.75	1.53	0.963	0.969	0.853
N fixed	0.217	1.18	0.79	0.983	0.82	0.805	0.896	0.895	0.876
P fixed	11.4	0.652	1.38	0.984	1.14	1.32	1.15	1.06	1.01
Q fixed	0.285	0.928	0.987	0.928	1.08	0.796	0.813	0.804	0.833
R fixed	0.327	2.31	2.45	0.973	1.78	1.23	1.68	1.18	1.23
V fixed	0.388	0.734	0.545	0.84	0.559	0.821	0.939	0.855	0.892
W fixed	0.331	0.95	1.28	1.57	0.836	1.32	0.958	1.31	1.46
Y fixed	0.315	0.999	1.28	1.19	0.992	1.12	1.05	1.19	1.33
pThr fixed	0.374	0.622	0.475	0.979	0.284	0.487	0.615	0.723	0.719
pTyr fixed	0.379	0.536	1.18	1.2	0.558	0.526	0.607	0.838	0.714

MAP3K6, construct: aa620-950 (from UniProt O95382)
relative phosphorylation
Conditions	at +1	at +2	at +3	at +4	at -1	at -2	at -3	at -4	at -5
A fixed	1.34	0.898	1.23	0.902	1.33	1.5	1.24	1.03	1.15
D fixed	0.184	0.304	0.38	0.371	0.366	0.366	0.474	0.589	0.603
E fixed	0.255	0.23	0.335	0.36	0.391	0.365	0.561	0.641	0.712
F fixed	0.74	0.907	1.12	1.04	0.584	0.622	0.872	0.93	0.875
G fixed	0.715	0.78	1.05	1.12	1.91	1.18	1.15	1.09	1.15
H fixed	1.4	1.41	1.02	1.26	1.12	1.16	1.35	1.32	1.24
I fixed	1.26	0.568	0.606	1.07	0.588	0.879	0.736	0.725	0.613
K fixed	0.426	1.54	1.26	1.82	1.1	0.972	1.03	1.3	1.32
L fixed	1.36	0.912	1.2	0.797	0.805	0.922	0.913	0.76	0.86
M fixed	1.73	1.01	0.995	0.908	1.13	0.758	0.859	1.31	0.869
N fixed	0.754	0.839	0.793	0.822	0.94	1.41	1.02	0.958	1.03
P fixed	0.354	0.498	1.1	0.931	0.896	1.16	0.774	0.824	1.08
Q fixed	0.844	0.83	0.946	0.931	0.891	1.25	1.08	1.02	1.14
R fixed	0.594	2.05	1.57	1.66	1.72	1.37	1.55	1.18	1.43
V fixed	1.62	0.726	0.984	0.853	0.917	1.35	0.984	1.02	0.996
W fixed	1.38	1.19	1.1	0.955	0.951	0.748	1.25	1.12	1.05
Y fixed	2.05	2.31	1.3	1.19	1.36	0.979	1.17	1.19	0.881
pThr fixed	0.602	0.585	0.681	0.261	0.574	0.9	0.725	0.845	0.914
pTyr fixed	0.421	0.294	0.614	0.356	0.673	0.548	0.787	0.736	0.917
